Reference: patent publication US5981262

Target: phosphopeptide of SEQ ID NO: 32, containing the PI3K ligand pY.V.P.M.L. (SEQ ID NO: 31)
Assay: SPR (BIAcore); phosphopeptide immobilized via its C-terminal lysine, SH2 peptide injected at 0.5, 0.67, 1.0, 2.0 and 4.0 uM

N-terminal SH2 peptide of the PI3K p85 was tested. Which Ka (binding affinity, printed in nM) did it give?
The Ka (binding affinity, printed in nM) was 160 nM.
